Results from patent US5834597.

B1: mouse M291 antibody (antibody, V domains shown)
VH: QVQLQQSGAELARPGASVKMSCKASGYTFISYTMHWVKQRPGQGLEWIGYINPRSGYTHYNQKLKDKATLTADKSSSSAYMQLSSLTSEDSAVYYCARSAYYDYDGFAYWGQGTLVTVSA
VL: QIVLTQSPAIMSASPGEKVTMTCSASSSVSYMNWYKQKSGTSPKRWTYDTSKLASGVPARFSGSGSGTSYSLTISSMEAEDAATYYCQQWSSNPPTFGSGTKLEIK

Experiments:
[1] = molecular target: human CD3 antigen on T cells (human); test: flow cytometry competition on human T cells, FITC-conjugated murine OKT3 as tracer
[2] = molecular target: human CD3 antigen on T cells (human); test: competition with 125I-labelled mouse M291 on IL-2-activated human T cells, method of Berzofsky and Berkower

| Molecule | avidity, fold compared to that of the chimeric IgG1 [1] [fold] | specific lysis of 51Cr-labeled K562 cells by retargeted T cell blasts (reverse lysis) (FcRII) [%] | Ka [2] [M⁻¹] |
| --- | --- | --- | --- |
| chimeric OKT3 IgG2 (from UniProt P01859-1) (antibody) | 2 to 3 | < 32 |  |
| humanized M291 IgG1 (from UniProt P01857-1) (antibody) |  |  | 1.6e+09 |
| B1 |  |  | 1.6e+09 |
